Residue numbers refer to the chain shown, from its start. Names may count otherwise. One block for each molecule: values may come before it.
How the values were obtained:
[1] = target: T1, FLAG-RTCB, the catalytic subunit of the human tRNA ligase (Homo sapiens, UniProt Q9Y3I0); test: Assay to monitor Archease function and inhibition of RNA ligase activity (linear intron substrate); format: biochemical; conditions: FLAG-RTCB from HEK293 cells with His-tagged Archease, GTP or GMPcPP at 0.5 mM
T1 construct: FLAG; made in house; host or cells: HEK293 cells (FLAG-RTCB)
Method: FIG. 14: Assay to monitor inhibition of RNA ligase activity. […] The linear substrate (second from bottom to top) is converted into a circular product (bottom) or a concatemer (top), which is further circularized (third from bottom to top). Ligation only took place with wild-type Archease and GTP.
The RNA ligation activity of FLAG-RTCB, the catalytic subunit of the human tRNA ligase, was determined in the presence of wildtype or mutant (D39A) Archease with the addition of GTP or non-hydrolysable GMPcPP (5′-guanylylmethylenebisphosphonate). […] The reaction was carried out with FLAG-RTCB purified from HEK293 cells and hexahistidine tagged wild-type or mutant Archease. Furthermore, GTP or GMPcPP were used at 0.5 mM concentration. A linear intron derived from a radioactively labelled pre-tRNA that was transcribed with T7 polymerase and cleaved with recombinant tRNA endonuclease from Methanocaldococcus jannaschii served as substrate. Cleavage products were resolved on preparative denaturing polyacrylamide gels and the linear intron was eluted overnight and recovered by precipitation. With reference to FIG. 14, FLAG-RTCB and wild-type Archease in the presence of GTP are able to convert the linear substrate (second from bottom to top) into a circular product (bottom) or a concatemer (top), which is further circularized (third from bottom to top). This type of assay can be used to validate candidate inhibitors of the Archease or even the ligase or to screen compound libraries in order to find inhibitory molecules.

[2] = system: pre-cleaved tRNA substrates; test: RNA ligase activity assay of affinity-purified FLAG-tagged Archease on pre-cleaved tRNA substrates; format: biochemical, human; conditions: FLAG immuno-precipitate
Method: A) Coomassie Blue stained preparations of FLAG-tagged Archease and HSPC117 affinity purified at 150 mM NaCl. B) RNA ligase activity assay of FLAG-HSPC117 and FLAG-Archease using pre-cleaved tRNA substrates. Extracts of HEK 293 cells were used as a negative control. * Indicates unspecific products.
Stable cell lines expressing a FLAG-tagged version of Archease and HSPC117 were generated to perform immuno-precipitations. Fluted FLAG-Archease was assayed for tRNA ligation in parallel with FLAG-HSPC117, which contains the entire tRNA ligase complex.

[3] = system: cleaved Xbp1 RNA minimal substrate; test: In vitro Xbp1 splicing (exon ligation) assay with Ire1 pre-cleaved Xbp1 RNA; format: biochemical, human; conditions: for Stimulation of ligation of Xbp1 RNA minimal substrates by affinity purified human tRNA ligase complex: addition of recombinant protein
Description: FIG. 8: The human tRNA ligase HSPC117 and Archease are both required for non-conventional splicing of Xbp1 mRNA during the Unfolded Protein Response (UPR). A) Experimental outline for in vitro splicing assay. B) An internally labeled fragment of Xbp1 mRNA was pre-cleaved with recombinant Ire1 endonuclease and supplemented with buffer or HeLa whole-cell extract (wce) for the indicated time points to allow ligation of exon halves. Formation of splice product is specific to the presence of both Ire1 and cell extract. Lanes marked “unspliced” and “spliced” contain control transcripts to mark the size of the splice product. C) HSPC117 and Archease both contribute to non-conventional splicing. 3′ end labeled Xbp1 was pre-cleaved with Ire1 and supplemented with whole-cell extract from HeLa cells treated with siRNAs as indicated above the lanes. Cell extracts were harvested 72 hrs post transfection. D) Ligase activity for non-conventional splicing resides in HSPC117 but not in Archease. In vitro splicing assay using 3′end labeled Xbp1 carried out using whole cell extract (input) or FLAG-IP from HEK293 cells stably expressing FLAG-HSPC117, FLAG-Archease or FLAG-DDX1. Ligation activity is only found in IPs of integral members of the tRNA ligase complex. E) Non-conventional splicing activity is stimulated by addition of Archease. Splicing assay using 3′ end labeled Xbp1 carried out as above with addition of buffer or recombinant protein as indicated above the lanes. […] Bovine Serum Albumine (BSA) was included as control.
For the splicing assay RNA was prepared by T7-transcrition from PCR product containing spliced and unspliced form of human Xbp1. Substrates were labelled internally using a-GTP and at the 3′end using ligation to pCp. Substrate was pre-cleaved with recombinant Ire1 for 5 mins in tRNA ligation buffer with subsequent addition of protein extract of FLAG-IP eluate to total volume of 5 μl. Samples were treated with proteinase K and phenol-chloroform extracted prior to loading on 10% PAGE gel.
Perturbation of normal ER function causes mis- or unfolded proteins to accumulate leading to activation of the unfolded protein response (UPR). One of three UPR pathway inducers in mammals, the ER transmembrane protein Ire1, cleaves the Xbp1 mRNA specifically to remove a 26 nt intron (FIG. 8A). […] None of the additional four components of the tRNA ligase complex were required for ligation in agreement with previous findings (WO 2012/28606). […] The reduced ligation activity seen in Archease-depleted extracts raised the question whether Archease is an RNA ligase or rather acts to stimulate the ligation activity of other ligases. To address this question stable cell lines expressing FLAG-tagged versions of HSPC117, Archease, and DDX1 (a DEAD-box helicase component of the human tRNA ligase complex) were generated and the Xbp1 ligation assay using FLAG-IPs was performed.
To further address the stimulatory activity of Archease both HSPC117 and Archease were depleted by RNAi and then an Archease rescue-construct containing either WT or MUT Archease was introduced.

[4] = target: T2, human tRNA ligase complex (Homo sapiens, UniProt Q9Y3I0); test: RNA ligation assay with affinity-purified tRNA ligase complex and added recombinant Archease; format: biochemical; conditions: pre-cleaved tRNA substrates or linear intron; time course
T2 construct: FLAG; made in house; Archease expressed in E. coli
Method: FIG. 3: Archease boosts RNA ligation by the human tRNA ligase complex. A) Time-course ligation assay with affinity-purified tRNA ligase complex and pre-cleaved tRNA substrates in absence or presence of recombinant Archease. B) Time course ligation assay with affinity purified tRNA ligase complex and isolated linear introns (2.5 μM) in absence or presence of recombinant Archease (8.5 μM) expressed in E. coli. The signals corresponding to the concatemerized intron were quantified and plotted as fraction of the total signal detectable in the respective lane.
FIG. 6: The point mutations D39A and K144A abolish the function of Archease in RNA ligation. A) Time-course of ligation activity of FLAG-HSPC117 complexes upon addition of recombinant wild-type or mutant Archease (15 μM). B) SDS-PAGE analysis of purified recombinant wild-type and mutant Archease.
Addition of Archaease influences ligase activity of affinity purified human tRNA ligase complexes.
To study the function of Archease the available NMR structure from the euryarchaeote Methanothermobacter thermautotrophicus (Yee et al., 2002) (36% identical to human protein) was used and aspartic acid (D) 39 and lysine (K) 144, both extremely conserved residues, were replaced by alanines (D39A; K144A) (FIG. 5). Wild-type and mutant versions of Archease were over-expressed in […] and tRNA ligase activity was measured. […] FIG. 6B confirms equal concentrations of recombinant proteins added to the reactions.

T1 sequence (Q9Y3I0 whole entry): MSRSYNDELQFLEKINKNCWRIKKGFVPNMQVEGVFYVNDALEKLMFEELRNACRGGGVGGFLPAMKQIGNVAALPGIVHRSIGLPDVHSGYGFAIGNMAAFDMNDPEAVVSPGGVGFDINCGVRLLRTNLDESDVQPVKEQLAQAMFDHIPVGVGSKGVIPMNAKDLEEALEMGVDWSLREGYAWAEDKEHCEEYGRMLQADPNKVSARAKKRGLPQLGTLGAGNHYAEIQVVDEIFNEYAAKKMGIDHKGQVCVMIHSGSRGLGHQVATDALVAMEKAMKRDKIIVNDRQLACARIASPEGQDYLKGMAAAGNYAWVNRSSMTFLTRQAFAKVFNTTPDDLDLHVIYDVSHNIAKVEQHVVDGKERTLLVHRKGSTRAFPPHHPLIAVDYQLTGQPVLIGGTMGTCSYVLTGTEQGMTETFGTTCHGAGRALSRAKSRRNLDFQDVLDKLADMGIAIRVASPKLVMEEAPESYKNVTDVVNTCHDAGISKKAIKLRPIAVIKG
T1 sequence (Q92499 whole entry partner): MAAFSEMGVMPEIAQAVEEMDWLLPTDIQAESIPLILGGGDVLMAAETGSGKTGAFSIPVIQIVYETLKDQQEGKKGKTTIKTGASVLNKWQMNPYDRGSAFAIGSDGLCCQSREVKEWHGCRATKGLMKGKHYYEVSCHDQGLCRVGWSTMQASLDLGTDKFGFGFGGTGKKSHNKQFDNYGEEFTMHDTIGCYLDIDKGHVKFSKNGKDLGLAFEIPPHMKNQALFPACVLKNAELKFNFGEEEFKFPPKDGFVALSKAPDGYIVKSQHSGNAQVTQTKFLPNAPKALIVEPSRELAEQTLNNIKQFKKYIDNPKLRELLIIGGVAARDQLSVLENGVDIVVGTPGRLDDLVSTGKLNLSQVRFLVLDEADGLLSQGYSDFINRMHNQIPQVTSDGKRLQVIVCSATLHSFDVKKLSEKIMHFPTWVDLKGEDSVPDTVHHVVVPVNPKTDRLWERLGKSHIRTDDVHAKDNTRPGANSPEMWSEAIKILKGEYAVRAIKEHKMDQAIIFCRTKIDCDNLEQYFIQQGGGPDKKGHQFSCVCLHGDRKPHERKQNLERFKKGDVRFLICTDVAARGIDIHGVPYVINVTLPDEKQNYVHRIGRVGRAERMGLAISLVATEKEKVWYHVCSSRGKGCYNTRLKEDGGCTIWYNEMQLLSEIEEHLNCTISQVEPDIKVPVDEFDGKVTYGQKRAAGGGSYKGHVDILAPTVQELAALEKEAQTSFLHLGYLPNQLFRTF
T1 sequence (Q52LJ0 whole entry partner): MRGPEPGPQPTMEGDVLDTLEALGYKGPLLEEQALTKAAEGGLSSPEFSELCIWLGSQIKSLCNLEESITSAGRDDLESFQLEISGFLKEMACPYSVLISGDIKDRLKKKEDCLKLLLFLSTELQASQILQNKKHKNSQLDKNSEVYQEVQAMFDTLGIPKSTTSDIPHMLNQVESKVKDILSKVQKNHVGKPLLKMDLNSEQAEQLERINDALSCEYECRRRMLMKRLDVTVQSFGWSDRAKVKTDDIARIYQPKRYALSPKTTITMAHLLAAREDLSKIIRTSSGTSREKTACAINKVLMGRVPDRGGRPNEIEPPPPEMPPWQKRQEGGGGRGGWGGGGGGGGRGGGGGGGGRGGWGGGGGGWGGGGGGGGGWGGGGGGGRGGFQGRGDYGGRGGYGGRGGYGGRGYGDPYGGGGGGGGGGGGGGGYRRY
T1 sequence (Q9BVC5 whole entry partner): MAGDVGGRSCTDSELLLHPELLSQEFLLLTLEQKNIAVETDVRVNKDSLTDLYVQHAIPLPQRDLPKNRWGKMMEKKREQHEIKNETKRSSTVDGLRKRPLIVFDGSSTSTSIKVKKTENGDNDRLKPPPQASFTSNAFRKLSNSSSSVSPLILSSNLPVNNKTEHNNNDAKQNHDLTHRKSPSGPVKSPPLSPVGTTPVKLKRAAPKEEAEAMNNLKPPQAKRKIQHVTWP
T1 sequence (Q9Y224 whole entry partner): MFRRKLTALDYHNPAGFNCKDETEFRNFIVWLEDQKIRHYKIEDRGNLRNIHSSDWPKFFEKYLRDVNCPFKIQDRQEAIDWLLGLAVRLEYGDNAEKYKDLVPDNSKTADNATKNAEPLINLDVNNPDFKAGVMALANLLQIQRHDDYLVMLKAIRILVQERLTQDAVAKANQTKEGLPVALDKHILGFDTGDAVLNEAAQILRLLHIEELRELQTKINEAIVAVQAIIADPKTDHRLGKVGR
T2 sequence (Q9Y3I0 whole entry): as the sequence (Q9Y3I0 whole entry) above
T2 sequence (Q92499 whole entry partner): as the sequence (Q92499 whole entry partner) above
T2 sequence (Q52LJ0 whole entry partner): as the sequence (Q52LJ0 whole entry partner) above
T2 sequence (Q9BVC5 whole entry partner): as the sequence (Q9BVC5 whole entry partner) above
T2 sequence (Q9Y224 whole entry partner): as the sequence (Q9Y224 whole entry partner) above

Molecule: Nc1nc2c(ncn2[C@@H]2O[C@H](COP(=O)(O)CP(=O)(O)OP(=O)(O)O)[C@@H](O)[C@H]2O)c(=O)[nH]1 [GMPcPP, 5′-guanylylmethylenebisphosphonate]
RNA ligation activity of FLAG-RTCB [1]: strongly inhibits the ligation reaction
RNA ligation activity of FLAG-RTCB ([1]; listed as GMPCPP): inhibits the reaction

B1: FLAG-tagged Archease: FLAG-tagged version of Archease affinity purified from stable cell lines (protein)
chain: MAQEEEDVRDYNLTEEQKAIKAKYPPVNRKYEYLDHTADVQLHAWGDTLEEAFEQCAMAMFGYMTDTGTVEPLQTVEVETQGDDLQSLLFHFLDEWLYKFSADEFFIPREVKVLSIDQRNFKLRSIGWGEEFSLSKHPQGTEVKAITYSAMQVYNEENPEVFVIIDI
modifications: left off: small tags and cut ends
RNA ligase activity of the affinity-purified protein itself [2]: RNA ligase activity was only detectable in reactions containing affinity-purified RNA ligase complex but not FLAG-tagged Archease
Xbp1 ligation activity of FLAG-IP ([3]; FLAG-IP from stable HEK293 cells): no ligation was detected

Stimulation of ligation of Xbp1 RNA minimal substrates by affinity purified human tRNA ligase complex [3]: inactive
B2: K144A: Archease point mutant, lysine 144 replaced by alanine; inactive (protein, listed as Homo sapiens)
chain: B1 chain with K144A
RNA ligase activity of affinity purified tRNA ligase complex upon addition of recombinant Archease [4]: neither of the mutant versions of Archease stimulated the low levels of ligation

Stimulation of ligation of Xbp1 RNA minimal substrates by affinity purified human tRNA ligase complex [3]: inactive
B3: D39A: Archease point mutant, aspartic acid 39 replaced by alanine; inactive (protein, listed as Homo sapiens)
chain: B1 chain with D39A
RNA ligase activity of affinity purified tRNA ligase complex upon addition of recombinant Archease [4]: neither of the mutant versions of Archease stimulated the low levels of ligation

— US9296994B2, “Archease as RNA ligaes complex member” (IMBA—INSTITUT FÜR MOLEKULARE BIOTECHNOLOGIE GMBH, priority 2012, dated 2016)
